Assay results published in US12337037B2, “Taxol conjugate compounds, pharmaceutical compositions comprising the same, and methods for their use” (N1 Life, Inc, priority 2021, dated 2025).
Values joined by “and” are separate entries in the source; they are usually repeats but may differ in a detail not shown here. Equal values may be shown once.

Experiments:
[1] = Safety: animal body weight change after dosing, tumor bearing mice; details: for Weight on day 21 (MEAN ± SD) / Weight on day 0 (MEAN ± SD): IP Q5D (day 0, 5, 10); for Weight on day 21 (MEAN ± SD) / Weight on day 0 (MEAN ± SD) / Weight gain (%): Taxol 10 mg/kg; for Weight on day 0 (MEAN ± SD): baseline; for Weight gain (%): day 0 to day 21, IP Q5D
From the text: Animals: Female athymic nude mice were used in this study. The experimental mice were purchased from Shibefu (Beijing) Biotechnology Co., Ltd. (QC number: SCXK Beijing 2019-0010) and maintained in a High Efficiency Particulate Air Filter (HEPA) filtered environment with cages, food and bedding sterilized by irradiation or autoclaving.
Establishment of peritoneal disseminated metastasis model of human ovarian cancer: Human ovarian cancer (SKOV-3-GFP) cells in logarithmic growth period were digested with 0.25% trypsin, rinsed with phosphate buffer (PBS) twice, centrifuged, and suspended with serum-free RPMI1640 medium. Cell suspension (6×10^6/120 μL/mouse) was injected into the peritoneal cavity of each experimental mouse for the establishment of peritoneal disseminated metastasis model of human ovarian cancer.
Groups, testing articles and treatment protocols: Day 4 after cell inoculation, all mice were subjected to systemic imaging using FluorVivo Model-100 (INDEC biosystems, CA, USA). Mice with a small deviation from average tumor load were enrolled in the study. All animals were randomly allocated to the different study groups, 6 mice in each group. Dosing schedule was Q5D (day 0, 5, 10), dosing volume was 10 μl/g, and administration route was intraperitoneal injection. Each dose of Compound 3 or Compound 5 was 9.6 mg/kg (equimolar to 2.5 mg/kg Taxol) and each dose of Taxol was 10 mg/kg. Taxol working solutions were prepared from 6 mg/mL stock solution, while Compounds were dissolved in PBS (pH 7.4) and filtered through 0.22 μm filter.
Monitoring of the experimental mice: During the period of the study, all experimental mice were checked daily for mortality or signs of morbidity. Images of tumor progression were acquired three times a week during the period of the study with the FluorVivo imaging system, Model 100/Mag (INDEC BioSystems, CA, USA). The body weights of the mice were measured three times a week during the period of the study.
Study endpoint: On Day 21 after administration, animals were euthanized by inhalation of excessive anesthetics. All tumors were exposed for imaging (under the same exposure conditions), after which the tumors were removed and weighed with an electronic balance (Sartorius BS 124 S, Germany). The tumor samples were then stored in formalin solution.
Statistical methods used in efficacy evaluation: Comparison of body weights and tumor burdens in different groups were analyzed using EXCEL t-test with an α=0.05 (two-sided).

[2] = system: NCI-H460-luc2 human intracranial cells; experiment: Efficacy against brain cancer: survival in NCI-H460-luc2 intracranial model; assay type: in vivo, Female BALB/c nude mice; details: for Increase Life Span (%): vs vehicle group; for Median Survival Time: MST ± SEM
Procedure: Cell Culture: Luciferase marked NCI-H460-luc2 human intracranial cells were maintained in vitro as a monolayer culture in ATCC formulated RPMI1640 medium supplemented with 10% heat inactivated fetal bovine serum, 100 U/mL penicillin and 100 μg/mL streptomycin at 37° C. in an atmosphere of 5% CO2 in air. The tumor cells were routinely subcultured twice weekly by trypsin-EDTA treatment. The cells growing in an exponential growth phase were harvested and counted for tumor inoculation.
Tumor Inoculation and Animal Grouping: Female BALB/c nude mice were anesthetized with avertin (20 μL/g). The animals were dosed intraperitoneally with 10 mg/kg of carprofen 30 minutes post-surgery for pain relief.
The anesthetized mouse was properly positioned. The surgical area was prepped with 70% ethanol solution. Using a sterile scalpel, a sagittal incision was made over the parieto-occipital bone, approximately 1 cm long. The exposed skull surface was then cleaned using a cotton swab soaked in 0.9% saline. Prior to tumor cell injection, a sterile 25 gauge sharp needle was used to puncture the skull at 2 mm to the right of the bregma and 1 mm anterior to the coronal suture, thereby creating an opening for the injection of tumor cells. Prior to drawing cells into the syringe, the contents of the cell suspension was mixed by tapping with finger. The syringe was loaded with the desired amount of cell suspension, and extra care was taken to avoid air bubbles. The outside of syringe was then cleaned with an alcohol swab to wipe the exterior free of any adherent cells, which helped to prevent extracranial tumor establishment and growth. To ensure that the appropriate injection depth was achieved, a 3 mm length was cut off on pointed end of a P20 pipetteman tip by a scalpel. This section of the tip was fitted over the syringe to limit the injection depth, and to ensure that the tip of the syringe needle was 3 mm from the underside of the skull. The syringe was placed perpendicular to the skull, in the hole previously created. And the cell suspension was slowly injected (a 3 μL suspension contains 1×10^5 NCI-H460-luc2 cells in 20% Matrigel should be injected over a 1 minute period). Intraventricular injection of cells and subsequent spinal dissemination was prevented by appropriate angle of syringe insertion. Upon completion of injection, the needle was left in place for another minute, and then slowly withdrawn. The hole as closed with medical anastomotic glue (OB). Using forceps, the scalp was drawn together over the skull and the incision was closed with surgical suture. The mice were kept warm until completely recovered from anesthesia.
Animals were selected and randomized (based on their bioluminescence density) on day 4 after tumor implantation.
Observations: During routine monitoring, the animals were checked daily for any effects of tumor growth and treatments on normal behavior such as mobility, food and water consumption (by looking only), body weight gain/loss (body weights were measured twice weekly or daily), eye/hair matting and any other abnormal effect stated in the protocol. Death and observed clinical signs were recorded on the basis of the numbers of animals within each subset.
Bioluminescence Measurements and Endpoints: The surgically inoculated mice were weighed and intraperitoneally administered luciferin at a dose of 150 mg/kg. Ten to fifteen minutes after the luciferin injection, the animals were pre-anesthetized with the mixture gas of oxygen and isoflurane. When the animals were in a complete anesthetic state, the mice were moved into the imaging chamber for bioluminescence measurements with an IVIS (Lumina II) imaging system.
The major endpoint was to determine if the tumor bioluminescence growth can be delayed, decreased, or vanished. […] The bioluminescence of the whole animal body, including primary and metastatic tumors, was measured and recorded once per week according to protocol (bioluminescence data not shown). […]

[3] = Table 7B (Compound 5 set), Compd 5 9.6 mg/kg
[4] = separate experiment, 38.4 mg/kg, 3 Q5D doses, tumor bearing mice
[5] = Table 7A (Compound 3 set), Compd 3 9.6 mg/kg

CC(=O)N[C@H](CSSCCCC(=O)O[C@@H](C(=O)O[C@H]1C[C@@]2(O)[C@@H](OC(=O)c3ccccc3)[C@@H]3[C@]4(OC(C)=O)CO[C@@H]4C[C@H](O)[C@@]3(C)C(=O)[C@H](OC(C)=O)C(=C1C)C2(C)C)[C@@H](NC(=O)c1ccccc1)c1ccccc1)C(=O)N[C@H](CCCNC(=N)N)C(=O)N[C@H](CCCNC(=N)N)C(=O)N[C@H](CCCNC(=N)N)C(=O)N[C@H](CCCNC(=N)N)C(=O)N[C@H](CCCNC(=N)N)C(=O)N[C@H](CCCNC(=N)N)C(=O)N[C@H](CCCNC(=N)N)C(=O)N[C@H](CCCNC(=N)N)C(N)=O [Compound 5, Ac-D-Cysteine (paclitaxel-4-mercaptobutanoate)-D-Arginine8-NH2]
Weight on day 21 (MEAN ± SD) [1, 3]: 16.9 ± 1.1
Weight on day 0 (MEAN ± SD) [1, 3]: 16.9 ± 0.6
Weight gain (%) [1, 3]: no change in body weight
Weight gain (%) ([1]; Table 7B (Compound 5 set), Compd 5 9.6 mg/kg, listed as Compd 5): 0%
animal deaths [1, 4]: One mouse in this group was found dead on Day 18
body weight change on Day 21 [1, 4]: −2%
clinical signs after administration [1, 4]: recumbent and their voluntary activities were reduced

CC(=O)N[C@@H](CSSCCCC(=O)OC(C(=O)O[C@H]1C[C@@]2(O)[C@@H](OC(=O)c3ccccc3)[C@@H]3[C@]4(OC(C)=O)CO[C@@H]4C[C@H](O)[C@@]3(C)C(=O)[C@H](OC(C)=O)C(=C1C)C2(C)C)[C@@H](NC(=O)c1ccccc1)c1ccccc1)C(=O)N[C@H](CCCNC(=N)N)C(=O)N[C@H](CCCNC(=N)N)C(=O)N[C@H](CCCNC(=N)N)C(=O)N[C@H](CCCNC(=N)N)C(=O)N[C@H](CCCNC(=N)N)C(=O)N[C@H](CCCNC(=N)N)C(=O)N[C@H](CCCNC(=N)N)C(=O)N[C@H](CCCNC(=N)N)C(N)=O (stereo partly drawn) [Compound 3, Ac-L-Cysteine (paclitaxel-4-mercaptobutanoate)-D-Arginine8-NH2]
body weight higher compared with the vehicle (PBS) group ([1]; 9.6 mg/kg IP Q5D, end of experiment): about 24%
Weight on day 21 (MEAN ± SD) [1, 5]: 18.5 ± 1.4
Weight on day 0 (MEAN ± SD) [1, 5]: 16.3 ± 1.0
Weight gain (%) [1, 5]: about 13%
Weight gain (%) ([1]; Table 7A (Compound 3 set), Compd 3 9.6 mg/kg, listed as Compd 3): 13%
animal deaths [1, 4]: no animal deaths were reported
body weight change on Day 21 [1, 4]: +22.1%
Increase Life Span (%) ([2]; Compound 3 9.6 mg/kg): 0.00%
Median Survival Time ([2]; Compound 3 9.6 mg/kg): 14 days
Increase Life Span (%) ([2]; Compound 3 19.2 mg/kg): −28.57%
Median Survival Time ([2]; Compound 3 19.2 mg/kg): 10 ± 2 days
survivors at the end point ([2]; Compound 3 38.4 mg/kg): one mouse in Compound 3 38.4 mg/kg group was still alive
Increase Life Span (%) ([2]; Compound 3 38.4 mg/kg): 0.00%
Median Survival Time ([2]; Compound 3 38.4 mg/kg, 38.4 mg/kg): 14 days and 14 ± 1 days

CC(=O)O[C@H]1C(=O)[C@@]2(C)[C@H]([C@H](OC(=O)c3ccccc3)[C@]3(O)C[C@H](OC(=O)[C@H](O)[C@@H](NC(=O)c4ccccc4)c4ccccc4)C(C)=C1C3(C)C)[C@]1(OC(C)=O)CO[C@@H]1C[C@@H]2O [Taxol, paclitaxel]
Increase Life Span (%) ([2]; Paclitaxel 10 mg/kg): −28.57%
Median Survival Time ([2]; Paclitaxel 10 mg/kg): 10 days and 10 ± 1 days
